The assay has as its target EBV-LMP2 peptide presented by HLA-A*02:02 on artificial antigen presenting cells (human; Epstein-Barr virus). As to the kind of experiment: cell-based or functional assay.

B1: LMP2-38×CD3 bispecific antibody (bispecific antibody)
chain: QSALTQPASVSGSPGQSITISCTGTSSDVGSYNDVSWYQQHPGKAPKLMIYDVSNRPSGVSNRFSGSKSGNTASLTISGLQTEDEADYYCNSYTSSNTYVFGTGTKVTVLGQVQLVQSGAEVKKPGASVQVSCRASGYTITSYYMHWVRQAPGQGLEWMGVINPNAGSTRYAQKFQGRVTMSTDTSTSTVYMALSSLRSDDTAVYYCARGMYRMYDWGQGTLVTVSSDVQLVQSGAEVKKPGASVKVSCKASGYTFTRYTMHWVRQAPGQGLEWIGYINPSRGYTNYADSVKGRFTITTDKSTSTAYMELSSLRSEDTATYYCARYYDDHYCLDYWGQGTTVTVSSGEGTSTGSGGSGGSGGADDIVLTQSPATLSLSPGERATLSCRASQSVSYMNWYQQKPGKAPKRWIYDTSKVASGVPARFSGSGSGTDYSLTINSLEAEDAATYYCQQWSSNPLTFGGGTKVEIKHHHHHH
Regarding B1, the “EC50 (read off the curve), T cell cytotoxicity on peptide-pulsed aAPC expressing HLA-A*02:02” value is approximately 0.02 µg/mL.

Values taken from patent US20180258187A1 (Memorial Sloan Kettering, published 2018).
